Reference: patent publication US20240376151A1, “STAPLED PEPTIDES AND METHODS THEREOF” (FOG PHARMACEUTICALS, INC., priority 2022, published 2024)
Numbered stars: 1 amine (or outer) side, 2 acyl side, 3 side chain; on linkers, the order of the positions; unused ones are H or OH. Bridge positions count the residues as written; N and C are the ends. Ends that are not written are not given here. Phenylene(1,4-NHCOCH2)2 = O=C(C[*:1])Nc1ccc(NC(=O)C[*:2])cc1

What was measured:
WWP1 = target: T1, WWP1 (Homo sapiens, UniProt Q9H0M0); test: Naive Library Presenter Screening (phage, NGS), WWP1 (construct not given); assay type: binding; settings: for interaction data at Target Concentration 10: WWP1 target concentration 10 nM; for interaction data at Target Concentration 30: WWP1 target concentration 30 nM; for interaction data at Target Concentration 100: WWP1 target concentration 100 nM; for interaction data at Target Concentration 300: WWP1 target concentration 300 nM; for interaction data at Target Concentration 1000: WWP1 target concentration 1000 nM
T1 construct: GST-TEV (N, cleaved yes); made in house; host or cells: Escherichia coli BL21 (DE3)

WWP2^HECT = target: T2, WWP2^HECT (Homo sapiens, UniProt O00308); test: Naive Library Presenter Screening (phage, NGS), WWP2^HECT; assay type: binding; settings: for interaction data at Target Concentration 10: WWP2 target concentration 10 nM; for interaction data at Target Concentration 30: WWP2 target concentration 30 nM; for interaction data at Target Concentration 100: WWP2 target concentration 100 nM; for interaction data at Target Concentration 300: WWP2 target concentration 300 nM; for interaction data at Target Concentration 1000: WWP2 target concentration 1000 nM
T2 construct: GST-TEV (N, cleaved yes); made in house; host or cells: Escherichia coli BL21 (DE3)
T2 sequence (O00308 492-865): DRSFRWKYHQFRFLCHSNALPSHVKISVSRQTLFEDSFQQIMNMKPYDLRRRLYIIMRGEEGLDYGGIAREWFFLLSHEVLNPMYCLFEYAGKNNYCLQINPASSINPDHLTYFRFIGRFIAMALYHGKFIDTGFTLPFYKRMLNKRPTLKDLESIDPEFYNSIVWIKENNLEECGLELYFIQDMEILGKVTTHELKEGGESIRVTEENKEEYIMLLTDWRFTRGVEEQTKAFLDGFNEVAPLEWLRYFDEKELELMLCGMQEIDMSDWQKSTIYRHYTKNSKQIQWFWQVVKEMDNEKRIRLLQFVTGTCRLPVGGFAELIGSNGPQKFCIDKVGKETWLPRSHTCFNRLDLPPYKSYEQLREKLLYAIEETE

interaction data at Target Concentration 10 (WWP2^HECT) | interaction data at Target Concentration 30 (WWP2^HECT) | interaction data at Target Concentration 100 (WWP2^HECT) | interaction data at Target Concentration 300 (WWP2^HECT) | interaction data at Target Concentration 1000 (WWP2^HECT; first column) | interaction data at Target Concentration 1000 (WWP2^HECT; second column) | Sequence | interaction data at Target Concentration 10 (WWP1) | interaction data at Target Concentration 30 (WWP1) | interaction data at Target Concentration 100 (WWP1) | interaction data at Target Concentration 300 (WWP1) | interaction data at Target Concentration 1000 (WWP1; second column) | interaction data at Target Concentration 1000 (WWP1; first column)
– | – | – | – | – | – | DPAATLCNQAANVCALL (linker 7-14 via Phenylene(1,4-NHCOCH2)2) | 0 | 0 | 132 | 145 | 197 | –
– | – | – | – | – | – | DPAFHYCTMAANMCHQD (linker 7-14 via Phenylene(1,4-NHCOCH2)2) | 0 | 0 | 3 | 73 | 169 | –
– | – | – | – | – | – | DPAFIQCTHAANMCHSS (linker 7-14 via Phenylene(1,4-NHCOCH2)2) | 0 | 3 | 43 | – | 562 | 336
– | – | – | – | – | – | DPAFLTCTLAASLCHQD (linker 7-14 via Phenylene(1,4-NHCOCH2)2) | 0 | 0 | 0 | 145 | 253 | –
– | – | – | – | – | – | DPAHQTCAFAAVLCHQN (linker 7-14 via Phenylene(1,4-NHCOCH2)2) | 0 | 0 | 32 | 18 | 309 | –
– | – | – | – | – | – | DPAHTACNQAARVCHTL (linker 7-14 via Phenylene(1,4-NHCOCH2)2) | 1 | 4 | 104 | 200 | 253 | –
– | – | – | – | – | – | DPAIFDCEFAAHVCSVL (linker 7-14 via Phenylene(1,4-NHCOCH2)2) | 0 | 26 | – | 436 | 618 | 275
– | – | – | – | – | – | DPAIIRCTSAAMMCHNT (linker 7-14 via Phenylene(1,4-NHCOCH2)2) | 0 | 4 | 0 | 55 | 169 | 183
– | – | – | – | – | – | DPAIMSCMYAAEVCRVL (linker 7-14 via Phenylene(1,4-NHCOCH2)2) | 0 | 1 | 147 | 109 | 253 | 183
– | – | – | – | – | – | DPAIQRCSTAAQVCRYL (linker 7-14 via Phenylene(1,4-NHCOCH2)2) | 0 | 6 | 202 | 236 | 197 | –
– | – | – | – | – | – | DPALASCQQAAWVCEVL (linker 7-14 via Phenylene(1,4-NHCOCH2)2) | 0 | 43 | 173 | 291 | 309 | –
– | – | – | – | – | – | DPALQTCMDAAQVCRLL (linker 7-14 via Phenylene(1,4-NHCOCH2)2) | 0 | 0 | 107 | 163 | 197 | –
– | – | – | – | – | – | DPAMIACSHAAQMCHWS (linker 7-14 via Phenylene(1,4-NHCOCH2)2) | 0 | 8 | 3 | 454 | 281 | 275
– | – | – | – | – | – | DPAMRRCHQAAWVCEVL (linker 7-14 via Phenylene(1,4-NHCOCH2)2) | 0 | 1 | 98 | 182 | 140 | 183
– | – | – | – | – | – | DPAQLSCTVAAHVCHST (linker 7-14 via Phenylene(1,4-NHCOCH2)2; not fully specified (C-terminus)) | 0 | 25 | 0 | 254 | 140 | 275
– | – | – | – | – | – | DPAQQTCSQAAWVCSIL (linker 7-14 via Phenylene(1,4-NHCOCH2)2; not fully specified (C-terminus)) | 0 | 55 | 443 | 363 | 477 | 397
– | – | – | – | – | – | DPARLDCTAAAYVCSVL (linker 7-14 via Phenylene(1,4-NHCOCH2)2) | 0 | 0 | 109 | 91 | 140 | –
– | – | – | – | – | – | DPARWACTEAAHVCDTL (linker 7-14 via Phenylene(1,4-NHCOCH2)2) | 0 | 2 | – | 182 | 281 | 183
– | – | – | – | – | – | DPATETCAQAAVLCHSD (linker 7-14 via Phenylene(1,4-NHCOCH2)2 (inferred); not fully specified (C-terminus)) | 1 | 12 | 3 | 200 | 449 | 519
– | – | – | – | – | – | DPATHVCTTAA VMCHQT (DPATHVCTTAAVMCHQT; not fully specified; cysteine pairing not given here) | 0 | 0 | 6 | 327 | 365 | 275
– | – | – | – | – | – | DPATMNCTLAANICHSH (linker 7-14 via Phenylene(1,4-NHCOCH2)2 (inferred); not fully specified (C-terminus)) | 0 | 0 | 3 | 363 | 197 | 458
– | – | – | – | – | – | DPAVRDCSDAAIVCELV (linker 7-14 via Phenylene(1,4-NHCOCH2)2) | 5 | 5 | 147 | 91 | 197 | –
0 | 0 | 0 | 28 | 33 | 15 | DPAVWDCRYAAWDCYTN (linker 7-14 via Phenylene(1,4-NHCOCH2)2 (inferred); not fully specified (C-terminus)) | – | – | – | – | – | –
0 | 0 | 88 | 86 | 97 | 107 | DPAVWECRWAAFQCWLD (linker 7-14 via Phenylene(1,4-NHCOCH2)2 (inferred); not fully specified (C-terminus)) | – | – | – | – | – | –
– | – | – | – | – | – | DPAWMACAWAANLCHSS (linker 7-14 via Phenylene(1,4-NHCOCH2)2) | 0 | 18 | 14 | 91 | 253 | 244
– | – | – | – | – | – | DPAWVSCVRAANLCHVS (linker 7-14 via Phenylene(1,4-NHCOCH2)2 (inferred); not fully specified (C-terminus)) | 33 | 1 | 0 | 0 | 140 | 183
59 | 97 | 107 | 147 | 101 | 141 | DPAYHHCLAAADLCSFF | – | – | – | – | – | –
